Data on seven molecules can be found in patent US20220073610A1 (CHANGCHUN GENESCIENCE PHARMACEUTICAL, published 2022).

The target in assay [1] is T1, human CD47 (human, UniProt Q08722 19-139, limits assumed).
T1 construct: also called hCD47
Briefly: ELISA of transient expression product; the sheet names no antigen and shows one curve per antibody; format not stated for this figure, read as the PD-L1/CD47 bridging ELISA of Example 3. In general terms: An ELISA detects its analyte on a solid surface through an enzyme-linked reagent.

Assay [2] addresses T2, human PD-L1 (human, UniProt Q9NZQ7 19-238, limits assumed).
T2 construct: also called hPD-L1
The description is as above.

In assay [3] the target is T3, Human CD47-His (constructed by GeneScience) (human, UniProt Q08722 19-139).
T3 construct: also called hCD47
T3 sequence (Q08722 other isoform, or with tags, fused parts or gaps limits assumed): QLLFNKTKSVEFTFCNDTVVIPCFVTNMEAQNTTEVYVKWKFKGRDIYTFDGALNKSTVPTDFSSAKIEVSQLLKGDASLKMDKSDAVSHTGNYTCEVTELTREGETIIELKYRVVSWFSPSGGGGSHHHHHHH
Put plainly: SPR, Biacore T200, CD47-His coupled to chip, antibody as analyte. The procedure: (§1) The affinities of antibodies with B2 structure and with FV1 structure were detected by Biacore T200 instrument. The specific protocols were as follows. Human PD-L1-His and human CD47-His were coupled to CMS biosensor chip (GE), and then the antibodies of different concentrations were flowed through the chip at a flow rate of 30 μL/min. The binding between the candidate antibody and antigen was performed with a binding time of 120 s and a dissociation time of 300 s. The kinetic fitting was performed using BIAevalution software (GE), and the results of affinity constants were obtained as shown in Table 2 and Table 3.
(Surface plasmon resonance follows binding to a sensor surface in real time, without labels.)

A further assay concerns the target T4, Human PD-L1-His (human, UniProt Q9NZQ7 19-238, limits assumed).
T4 construct: not shown: His tag
Put plainly: SPR, Biacore T200, PD-L1-His coupled to chip, antibody as analyte. On the procedure: as §1

Assay [4] deals with T3, Human CD47-His (constructed by …). Put plainly: bridging ELISA of Example 3: PD-L1-mFc coated, purified antibody titrated, CD47-His as second antigen; paragraph 132 prints the value without a unit, the unit is from the sheet's axis Antibody(ug/ml). The procedure:
(§2) 1. Coating the first antigen: Human PD-L1-mFc (constructed by GeneScience, SEQ ID NO: 22) was diluted with PBS to 1 μg/mL, and then added to a 96-well microtiter plate at 50 μL per well and incubated overnight at 4° C.
(§3) 4. Adding the second antigen: Human CD47-His (constructed by GeneScience, SEQ ID NO: 23) was diluted with PBS to 10 μg/mL, and then added to the 96-well microtiter plate at 50 μL per well and incubated at 25° C. for 1 hour.
(§4) 8. Detection: After terminating the reaction, the microtiter plate was immediately put into the microplate reader. The OD value at 450 nm was measured, and the original data was saved for sorting.

The target in assay [5] is Human PD-L1-mFc (constructed by GeneScience) (human). The assay is described as above. The procedure:
as §2, §3, §4

Assay [6] concerns the target T1, human CD47. Briefly: ELISA of transient expression product; no antigen named on the sheet; PD-L1 Ab and CD47 Ab are both flat, so read as the PD-L1/CD47 bridging ELISA of Example 3; no unit beside the EC50, unit taken from the axis Antibody(ug/ml).
Assay [7] has as its target T2, human PD-L1. The description is as above.

For orientation: EC50 (read off the curve) means the concentration that produces a half-maximal response. A low value points to higher potency in that assay. Broadly, the Kd is the constant that tells how readily two partners part at equilibrium. What is called koff is the rate constant with which the complex falls apart. In general, kon refers to a measure of how fast the partners come together. Low values mean slower complex formation, high ones faster complex formation. For orientation: EC50 means the concentration needed to bring the measured effect to its halfway point. The low end stands for a more potent agent, the high end for a less potent agent.

T1 sequence (Q08722 19-139 limits assumed): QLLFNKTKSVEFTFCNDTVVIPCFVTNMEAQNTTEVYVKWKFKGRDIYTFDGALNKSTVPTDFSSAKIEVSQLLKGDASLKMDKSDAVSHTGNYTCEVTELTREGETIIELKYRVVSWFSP
T4 sequence (Q9NZQ7 19-238 limits assumed): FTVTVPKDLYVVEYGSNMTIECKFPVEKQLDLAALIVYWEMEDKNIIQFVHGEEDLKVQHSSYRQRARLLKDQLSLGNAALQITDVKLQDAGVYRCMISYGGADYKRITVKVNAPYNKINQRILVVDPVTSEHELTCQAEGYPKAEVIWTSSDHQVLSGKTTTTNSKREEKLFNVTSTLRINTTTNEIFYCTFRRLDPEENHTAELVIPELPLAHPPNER
T2 sequence (Q9NZQ7 19-238 limits assumed): as above
Human PD-L1-mFc (constructed by GeneScience) (human), sequence (chain, as listed by the source limits assumed): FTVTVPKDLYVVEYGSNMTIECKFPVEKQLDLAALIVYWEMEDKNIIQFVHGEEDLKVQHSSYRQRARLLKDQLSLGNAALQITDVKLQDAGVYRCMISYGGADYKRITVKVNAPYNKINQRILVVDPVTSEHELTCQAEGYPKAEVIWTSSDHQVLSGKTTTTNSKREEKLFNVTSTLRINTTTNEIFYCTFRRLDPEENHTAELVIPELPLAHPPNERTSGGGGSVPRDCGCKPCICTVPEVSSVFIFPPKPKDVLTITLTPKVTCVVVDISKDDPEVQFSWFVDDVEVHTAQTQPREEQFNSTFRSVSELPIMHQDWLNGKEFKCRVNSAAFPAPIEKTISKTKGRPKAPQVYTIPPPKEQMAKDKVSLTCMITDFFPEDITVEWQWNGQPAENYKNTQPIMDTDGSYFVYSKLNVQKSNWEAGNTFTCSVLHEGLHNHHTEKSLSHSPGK

B1: B1 (bispecific antibody)
chain 1: ASTKGPSVFPLAPSSKSTSGGTAALGCLVKDYFPEPVTVSWNSGALTSGVHTFPAVLQSSGLYSLSSVVTVPSSSLGTQTYICNVNHKPSNTKVDKKVEPKSCDKQVQLVQSGAEVKKPGASVKVSCKASGYTFTNYVLHWVRQAPGQRLEWMGYFNPYNDDSKYNEKFKGRVTITRDTSASTAYMELSSLRSEDTAVYYCARGGYYSMDYWGQGTLVTVSSGGGGSGGGGSGGGGSASDIVMTQTPLSLPVTPGQPASISCRASQSLAHSNGYTYLQWYLQKPGQSPQLLIYKVSKRFSGVPDRFSGSGSGTDFTLKISRVEAEDVGVYYCSQSTHVPYTFGQGTKVEIK
chain 2: EVQLVESGGGLVQPGGSLRLSCAASYFPFSDSWIHWVRQAPGKGLEWVAWISPYGGSSYYADSVQDRFTISADTSKNTAYLQMNSLRAEDTAVYYCAKRHWPGGFDHWGQGTLVTVSSGGGGSGGGGSGGGGSASDIQMTQSPSSLSASVGDRVTITCSASQDVTTAVAWYQQKPGKAPKLLIYSASFPYRGVPSRFSGSGSGTDFTLTISSLQPEDFATYYCQQYMYHPSTFGQGTKVEIKRTVAAPSVFIFPPSDEQLKSGTASVVCLLNNFYPREAKVQWKVDNALQSGNSQESVTEQDSKDSTYSLSSTLTLSKADYEKHKVYACEVTHQGLSSPVTKSFNRGEC
notes: also called B1 structure; H1+L1
For the molecule B1, the half-maximal effective concentration (EC50 (read off the curve)) with human CD47 [1] and with human PD-L1 [2] was around 0.2 µg/mL in each case.

B2: bivalent bispecific antibody with B2 structure (H2+L2) (bispecific antibody)
heavy: ASTKGPSVFPLAPSSKSTSGGTAALGCLVKDYFPEPVTVSWNSGALTSGVHTFPAVLQSSGLYSLSSVVTVPSSSLGTQTYICNVNHKPSNTKVDKKVEPKSCDKEVQLVESGGGLVQPGGSLRLSCAASYFPFSDSWIHWVRQAPGKGLEWVAWISPYGGSSYYADSVQDRFTISADTSKNTAYLQMNSLRAEDTAVYYCAKRHWPGGFDHWGQGTLVTVSSGGGGSGGGGSGGGGSASDIQMTQSPSSLSASVGDRVTITCSASQDVTTAVAWYQQKPGKAPKLLIYSASFPYRGVPSRFSGSGSGTDFTLTISSLQPEDFATYYCQQYMYHPSTFGQGTKVEIK
light: QVQLVQSGAEVKKPGASVKVSCKASGYTFTNYVLHWVRQAPGQRLEWMGYFNPYNDDSKYNEKFKGRVTITRDTSASTAYMELSSLRSEDTAVYYCARGGYYSMDYWGQGTLVTVSSGGGGSGGGGSGGGGSASDIVMTQTPLSLPVTPGQPASISCRASQSLAHSNGYTYLQWYLQKPGQSPQLLIYKVSKRFSGVPDRFSGSGSGTDFTLKISRVEAEDVGVYYCSQSTHVPYTFGQGTKVEIKRTVAAPSVFIFPPSDEQLKSGTASVVCLLNNFYPREAKVQWKVDNALQSGNSQESVTEQDSKDSTYSLSSTLTLSKADYEKHKVYACEVTHQGLSSPVTKSFNRGEC
notes: The two chains form a heterodimer through a CL-hinge disulfide bond, and there is no Fc; also called B2 bispecific antibody; preferred antibody B2
Molecule B2 registered a Kd in assay [3] of 25.8 nM. In the assay with Human PD-L1-His, this molecule displayed a Kd of 0.109 nM, a koff of 4.28e-05 s⁻¹ and a kon of 395000 M⁻¹ s⁻¹. Further, in assay [4], the EC50 stood at 0.564 µg/mL. For the same molecule, the EC50 in assay [5] was determined as 0.564 µg/mL.

B3: bivalent bispecific antibody with FV1 structure (H5+L5+H6+L6) (bispecific antibody, human IgG1, kappa)
heavy 1: not shown
light 1: DIQMTQSPSSLSASVGDRVTITCSASQDVTTAVAWYQQKPGKAPKLLIYSASFPYRGVPSRFSGSGSGTDFTLTISSLQPEDFATYYCQQYMYHPSTFGQGTKVEIKRTVAAPSVFIFPPSDEQLKSGTASVVCLLNNFYPREAKVQWKVDNALQSGNSQESVTEQDSKDSTYSLSSTLTLSKADYEKHKVYACEVTHQGLSSPVTKSFNRGEC
heavy 2: not shown
light 2: DVVMTQTPLSLPVSLGDQASISCRSSQSLVHSKGNTYLHWYLQKPGQSPKLLIYRVSNRFSGVPDRFSGSGSGTDFTLKISRVEAEDLGVYFCSQSTHVPFTFGSGTKLEIKLGGC
notes: It is IgG1-based with knob-into-hole CH3 domains; also called FV1 bispecific antibody
As for B3, the Kd in assay [3] came out at 15 nM; in the assay with Human PD-L1-His it was 0.271 nM. The molecule further returned a koff in the assay with Human PD-L1-His of 0.000119 s⁻¹. Moreover, in the assay with Human PD-L1-His, the kon worked out at 440000 M⁻¹ s⁻¹. The EC50 stood at 1.66 µg/mL in assay [4], 1.66 µg/mL in assay [5], 0.0887 µg/mL with human CD47 [6] and 0.0887 µg/mL in the assay with human PD-L1 [7].

B4: FV3 (bispecific antibody, human IgG1, kappa)
chain 1: not shown
chain 2: DIQMTQSPSSLSASVGDRVTITCSASQDVTTAVAWYQQKPGKAPKLLIYSASFPYRGVPSRFSGSGSGTDFTLTISSLQPEDFATYYCQQYMYHPSTFGQGTKVEIKRTVAAPSVFIFPPSDEQLKSGTASVVCLLNNFYPREAKVQWKVDNALQSGNSQESVTEQDSKDSTYSLSSTLTLSKADYEKHKVYACEVTHQGLSSPVTKSFNRGEC
chain 3: not shown
chain 4: DVVMTQTPLSLPVSLGDQASISCRSSQSLVHSKGNTYLHWYLQKPGQSPKLLIYRVSNRFSGVPDRFSGSGSGTDFTLKISRVEAEDLGVYFCSQSTHVPFTFGSGTKLEIKGGGGSGGGGSGGGGSASLGGC
notes: also called FV3 structure; H5+L5+H8+L8
On to B4, for which the EC50 with human CD47 [6] and with human PD-L1 [7] was 0.179 µg/mL in each case.

B5: FV2 (bispecific antibody, human IgG1, kappa)
chain 1: not shown
chain 2: DIQMTQSPSSLSASVGDRVTITCSASQDVTTAVAWYQQKPGKAPKLLIYSASFPYRGVPSRFSGSGSGTDFTLTISSLQPEDFATYYCQQYMYHPSTFGQGTKVEIKRTVAAPSVFIFPPSDEQLKSGTASVVCLLNNFYPREAKVQWKVDNALQSGNSQESVTEQDSKDSTYSLSSTLTLSKADYEKHKVYACEVTHQGLSSPVTKSFNRGEC
chain 3: not shown
chain 4: DVVMTQTPLSLPVSLGDQASISCRSSQSLVHSKGNTYLHWYLQKPGQSPKLLIYRVSNRFSGVPDRFSGSGSGTDFTLKISRVEAEDLGVYFCSQSTHVPFTFGSGTKLEIKSGGGGSASLGGC
notes: also called FV2 structure; H5+L5+H7+L7
For the molecule B5, the EC50 in the assay with human CD47 [6] and with human PD-L1 [7] was 0.186 µg/mL each time.

B6: FV4 (bispecific antibody, human IgG1, kappa)
chain 1: not shown
chain 2: DIQMTQSPSSLSASVGDRVTITCSASQDVTTAVAWYQQKPGKAPKLLIYSASFPYRGVPSRFSGSGSGTDFTLTISSLQPEDFATYYCQQYMYHPSTFGQGTKVEIKRTVAAPSVFIFPPSDEQLKSGTASVVCLLNNFYPREAKVQWKVDNALQSGNSQESVTEQDSKDSTYSLSSTLTLSKADYEKHKVYACEVTHQGLSSPVTKSFNRGEC
chain 3: not shown
chain 4: DVVMTQTPLSLPVSLGDQASISCRSSQSLVHSKGNTYLHWYLQKPGQSPKLLIYRVSNRFSGVPDRFSGSGSGTDFTLKISRVEAEDLGVYFCSQSTHVPFTFGSGTKLEIKSGGGGSASLGGC
notes: also called FV4 structure; H5+L5+H9+L7
Turning to B6, the EC50 in the assay with human CD47 [6] and in the assay with human PD-L1 [7] was 0.146 µg/mL in each case.

B7: B4 (bispecific antibody)
chain 1: QVQLVQSGAEVKKPGASVKVSCKASGYTFTNYVLHWVRQAPGQRLEWMGYFNPYNDDSKYNEKFKGRVTITRDTSASTAYMELSSLRSEDTAVYYCARGGYYSMDYWGQGTLVTVSSGGGGSGGGGSGGGGSASDIVMTQTPLSLPVTPGQPASISCRASQSLAHSNGYTYLQWYLQKPGQSPQLLIYKVSKRFSGVPDRFSGSGSGTDFTLKISRVEAEDVGVYYCSQSTHVPYTFGQGTKVEIKASTKGPSVFPLAPSSKSTSGGTAALGCLVKDYFPEPVTVSWNSGALTSGVHTFPAVLQSSGLYSLSSVVTVPSSSLGTQTYICNVNHKPSNTKVDKKVEPKSCDK
chain 2: RTVAAPSVFIFPPSDEQLKSGTASVVCLLNNFYPREAKVQWKVDNALQSGNSQESVTEQDSKDSTYSLSSTLTLSKADYEKHKVYACEVTHQGLSSPVTKSFNRGECEVQLVESGGGLVQPGGSLRLSCAASYFPFSDSWIHWVRQAPGKGLEWVAWISPYGGSSYYADSVQDRFTISADTSKNTAYLQMNSLRAEDTAVYYCAKRHWPGGFDHWGQGTLVTVSSGGGGSGGGGSGGGGSASDIQMTQSPSSLSASVGDRVTITCSASQDVTTAVAWYQQKPGKAPKLLIYSASFPYRGVPSRFSGSGSGTDFTLTISSLQPEDFATYYCQQYMYHPSTFGQGTKVEIK
notes: also called B4 structure; H4+L4
Regarding B7, the “EC50 (read off the curve)” value with human CD47 [1] and with human PD-L1 [2] was around 0.09 µg/mL in each case.
